Experimental data as given in article PMC5114558, “Reader domain specificity and lysine demethylase-4 family function” (Nature Communications, 2016).
No end group written: not given here. Me3 = trimethyl-lysine

Columns and labels:
Settings in all cases: both partners purified
[1] = target: T1, KDM4C double tudor domain (KDM4C-DTD), HaloTag-tagged, wild type (human, UniProt Q9H3R0 877-991); assay: fluorescence polarisation; fluorescein-labelled histone peptide 3 nM, KDM4 DTD titrated 0.1-100 μM; 30 mM HEPES, 150 mM NaCl pH 7.4, 0.01% Triton X-100
T1 construct: Human KDM4C double tudor domain, residues 877-991 of UniProt Q9H3R0 (isoform 1); pFN29 construct; also called HT-KDM4 DTD; source: E. coli BL21 (DE3), purified (Ni-NTA); not shown: HaloTag, N-terminal, kept
T1 sequence (looked up): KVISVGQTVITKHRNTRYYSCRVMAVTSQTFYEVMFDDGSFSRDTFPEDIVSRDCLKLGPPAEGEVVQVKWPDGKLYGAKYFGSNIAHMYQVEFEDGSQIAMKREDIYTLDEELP

KDM4B-DTD N960A = target: T2, KDM4B-DTD N960A (human, UniProt O94953 917-1031, N960A); assay: as above
T2 construct: Human KDM4B double tudor domain, residues 917-1031 of UniProt O94953 (isoform 1); also called N960A variant; source: E. coli BL21 (DE3), purified (Ni-NTA)
T2 sequence (looked up): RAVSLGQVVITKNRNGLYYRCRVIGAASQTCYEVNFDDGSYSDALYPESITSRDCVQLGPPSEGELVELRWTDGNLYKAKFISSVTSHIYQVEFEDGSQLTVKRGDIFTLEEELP

KDM4B-DTD S965D = target: T3, KDM4B-DTD S965D (human, UniProt O94953 917-1031, S965D); assay: as above
T3 construct: Human KDM4B double tudor domain, residues 917-1031 of UniProt O94953 (isoform 1); also called KDM4B-S965D; source: E. coli BL21 (DE3), purified (Ni-NTA)
T3 sequence (looked up): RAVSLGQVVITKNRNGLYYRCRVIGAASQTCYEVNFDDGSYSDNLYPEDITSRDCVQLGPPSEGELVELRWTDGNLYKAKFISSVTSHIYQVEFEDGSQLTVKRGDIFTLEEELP

KDM4A-DTD N931D = target: T4, KDM4A-DTD N931D (human, UniProt O75164 895-1011, N931D); assay: as above
T4 construct: Human KDM4A double tudor domain, residues 895-1011 of UniProt O75164 (isoform 1); source: E. coli BL21 (DE3), purified (Ni-NTA)
T4 sequence (looked up): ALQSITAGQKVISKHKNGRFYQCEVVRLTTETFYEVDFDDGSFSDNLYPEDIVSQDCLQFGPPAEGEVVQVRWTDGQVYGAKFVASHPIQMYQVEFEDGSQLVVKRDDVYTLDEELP

[2] = target: T5, KDM4A double tudor domain (KDM4A-DTD), His6 tag cleaved, for crystallization (human, UniProt O75164 895-1011); assay: crystal structure; KDM4A-DTD mixed with H3K23me3 peptide at about 1:1.5, crystallized at 20 °C in 100 mM CAPS pH 10.5, 200 mM lithium sulfate, 1.2 M NaH2PO4, 0.8 M K2HPO4
T5 construct: Human KDM4A double tudor domain, residues 895-1011 of UniProt O75164 (isoform 1); pET28 construct (pET28b in the plasmid section, pET28a in the purification section); also called N-His6-KDM4A-DTD; source: E. coli BL21 (DE3), purified (HisTrap, thrombin cleavage, gel filtration); not shown: His6, N-terminal, cleaved
T5 sequence (looked up): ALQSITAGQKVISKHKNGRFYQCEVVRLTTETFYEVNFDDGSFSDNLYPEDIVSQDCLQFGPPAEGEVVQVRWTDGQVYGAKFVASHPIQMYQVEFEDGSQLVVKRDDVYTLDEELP

B1: H3K4me3 peptide, fluorescein-labelled (peptide)
chain: ARTK(Me3)QTARKSTGGK
modifications: also: fluorescein label, end not given here
- Kd [1]: 6.8 µM
- Kd (KDM4B-DTD N960A): 303 µM
- Kd (KDM4B-DTD S965D): ~200 µM

B2: H3K14me3 peptide, fluorescein-labelled (peptide)
chain: ARKSTGGK(Me3)APRKQLATK
modifications: also: fluorescein label, end not given here
- Kd (KDM4A-DTD N931D): 12.2 µM

B3: H3 (19-28) K23me3 peptide for co-crystallization (peptide, UniProt P68431 20-29, looked up)
peptide: QLATK(Me3)AARKS
notes: density seen for Q19-K27; also called H3K23me3 peptide; H3 (19-27) K23me3 peptide; source: synthetic peptide, bought: Peptide 2.0
- binding result [2]: binds
